{"source": "IntAct's records for PubMed 24290140", "parents": {"B1": {"name": "Four and a half LIM domains protein 1 (Mus musculus), P97447-2 (parent)", "chain": "MSEKFDCHYCRDPLQGKKYVQKDGRHCCLKCFDKFCANTCVDCRKPISADAKEVHYKNRYWHDNCFRCAKCLHPLASETFVSKDGKILCNKCATREDSPRCKGCFKAIVAGDQNVEYKGTVWHKDCFTCSNCKQVIGTGSFFPKGEDFYCVTCHETKFAKHCVKCNKGLVKAPVWWPMKDNPGTTTASTAKNAP"}}, "data": [{"variants_of": "B1", "conditions": "with suh_mouse Rbpj", "values": [{"variant": "MSEKFDCHYCRDPLQGKKYVQKDGRHCCLKCFDKFCANTCVDCRKPISADAKEVHYKNRYWHDNCFRCAKCLHPLASETFVSKDGKILCNKCATREDSPRCKGCFKAIVAGDQNVEYKGTVWHKDCFTCSNCKQVIGTGSFFPKGEDFYCVTCHETKFAKHCVKCNKGLVKAPVAAPMKDNPGTTTASTAKNAP", "effect of a mutation on the interaction": "disrupting interaction strength"}]}]}
